Measurements taken from publication PMC7785020, “A unique hormonal recognition feature of the human glucagon-like peptide-2 receptor” (Cell Research, 2020).

Experiments:
[1] = molecular target: GLP-2R D244^ECL1A (human) (UniProt O95838); experiment: radioligand binding; competition on transiently transfected COS-7 cells: unlabeled GLP-2(1–33) 0.1 nM to 1 μM against 10–15 pM [125I]GLP-2(1–33, M10Y); 4 h, 4 °C; 50 mM HEPES pH 7.4, 1 mM CaCl2, 5 mM MgCl2, 0.5% BSA; three-parameter logistic fit
[2] = molecular target: GLP-2R ECL1 (poly-alanine) (human) (UniProt O95838); experiment: as above
[3] = molecular target: GLP-2R N247^ECL1A (human) (UniProt O95838); experiment: as above
[4] = molecular target: GLP-2R H268^3.37A (human) (UniProt O95838); experiment: as above
[5] = molecular target: GLP-2R W249^ECL1A (human) (UniProt O95838); experiment: as above
[6] = molecular target: GLP-2R Y252^ECL1A (human) (UniProt O95838); experiment: as above
[7] = molecular target: GLP-2R R344^5.40A (human) (UniProt O95838); experiment: as above
[8] = molecular target: GLP-2R R242^ECL1A (human) (UniProt O95838); experiment: as above
GLP-2R H268^3.37A = molecular target: T1, GLP-2R H268^3.37A (Homo sapiens, UniProt O95838, H268A); experiment: cAMP accumulation, H268^3.37A; assay type: cell-based; parameters: WT (1–553); expressed in transfected cells; HEK 293T (cAMP); conditions: Table S3, H268A; HEK 293T, 30 min, RT; mean ± SEM, n ≥ 3 in duplicate; read-out: cAMP Emax (% WT)
T1 sequence (O95838 1-553 H268A): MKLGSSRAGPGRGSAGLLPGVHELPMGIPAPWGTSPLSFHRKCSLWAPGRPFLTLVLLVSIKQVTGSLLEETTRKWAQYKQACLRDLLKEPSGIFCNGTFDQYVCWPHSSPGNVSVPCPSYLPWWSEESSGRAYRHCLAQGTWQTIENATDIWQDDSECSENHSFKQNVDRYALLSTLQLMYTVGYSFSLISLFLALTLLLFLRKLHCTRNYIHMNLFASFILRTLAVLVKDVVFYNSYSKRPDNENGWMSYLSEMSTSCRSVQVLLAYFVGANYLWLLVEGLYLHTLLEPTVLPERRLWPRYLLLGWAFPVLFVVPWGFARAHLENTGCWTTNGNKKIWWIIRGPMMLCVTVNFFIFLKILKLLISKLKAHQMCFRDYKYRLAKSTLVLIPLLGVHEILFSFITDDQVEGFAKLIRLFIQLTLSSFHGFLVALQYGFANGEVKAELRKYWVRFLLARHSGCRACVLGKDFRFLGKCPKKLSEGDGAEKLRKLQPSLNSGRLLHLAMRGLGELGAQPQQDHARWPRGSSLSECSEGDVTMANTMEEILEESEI
Method: HEK 293T cells were cultured in Dulbecco’s Modified Eagle’s Medium (DMEM) (Gibco, Waltham, USA) supplemented with 10% (v/v) fetal bovine serum (FBS) (Gibco) and 1% (v/v) sodium pyruvate (Gibco) at 37 °C, 5% CO2 in a humidified incubator. They were seeded onto 6-well cell culture plates and transiently transfected with different GLP-2R constructs using Lipofectamine 2000 transfection reagent (Invitrogen, Carlsbad, CA, USA). After 24 h, the transfected cells were seeded onto 384-well microtiter plates (3000 cells per well) in HBSS supplemented with 5 mM HEPES, 0.1% (w/v) bovine serum albumin (BSA) and 0.5 mM 3-isobutyl-1- methylxanthine, and stimulated with increasing concentrations of GLP-2 for 30 min at RT. Eu and Ulight were diluted by cAMP detection buffer and added to the plates separately to terminate the reaction. Plates were incubated at RT for 60 min before measuring the fluorescence intensity at 620 nm and […] by an EnVision multilabel plate reader (PerkinElmer, Boston, USA).

dipeptidyl peptidase 4 = conditions: cited from earlier work
Source text: GLP-2R belongs to class B GPCR subfamily, which is mainly expressed in the gut, pancreas and brain.[1] […] GLP-2 is encoded by the proglucagon gene and becomes active after post-translational processing by prohormone convertases. As a gastrointestinal hormone, it mainly regulates intestinal epithelial cell growth and functions that are crucial for digestion and absorption of nutrients.[2]

Sequence of GLP-2R D244^ECL1A (human) (O95838 whole entry D244A): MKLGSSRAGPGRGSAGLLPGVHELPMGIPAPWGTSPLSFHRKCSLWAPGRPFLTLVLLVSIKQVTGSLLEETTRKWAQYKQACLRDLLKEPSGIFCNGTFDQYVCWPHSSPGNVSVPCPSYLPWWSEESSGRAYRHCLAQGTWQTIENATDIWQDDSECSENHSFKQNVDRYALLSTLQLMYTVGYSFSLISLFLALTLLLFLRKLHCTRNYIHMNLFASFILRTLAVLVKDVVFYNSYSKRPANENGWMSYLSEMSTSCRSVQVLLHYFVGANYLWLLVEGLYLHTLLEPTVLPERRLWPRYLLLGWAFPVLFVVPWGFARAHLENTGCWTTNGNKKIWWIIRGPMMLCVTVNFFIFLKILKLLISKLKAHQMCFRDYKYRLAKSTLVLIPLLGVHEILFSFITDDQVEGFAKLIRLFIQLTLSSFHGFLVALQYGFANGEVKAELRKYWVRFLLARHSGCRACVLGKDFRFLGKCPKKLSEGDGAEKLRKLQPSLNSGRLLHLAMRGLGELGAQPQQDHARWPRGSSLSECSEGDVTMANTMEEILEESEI
Sequence of GLP-2R Y252^ECL1A (human) (O95838 whole entry Y252A): as the sequence (O95838 whole entry D244A) above, with A244D, Y252A counted along it
Sequence of GLP-2R ECL1 (poly-alanine) (human) (O95838 whole entry): as the sequence (O95838 whole entry D244A) above, with A244D counted along it
Sequence of GLP-2R R242^ECL1A (human) (O95838 whole entry R242A): as the sequence (O95838 whole entry D244A) above, with R242A, A244D counted along it

| % Binding of WT [1] [%] | % Binding of WT [2] [%] | % Binding of WT [3] [%] | % Binding of WT [4] [%] | % Binding of WT [5] [%] | % Binding of WT [6] [%] | % Binding of WT [7] [%] | % Binding of WT [8] [%] | Compound | Emax (GLP-2R H268^3.37A) [%] | inactivation by dipeptidyl peptidase 4 in vivo (in words) (dipeptidyl peptidase 4) |
| --- | --- | --- | --- | --- | --- | --- | --- | --- | --- | --- |
| 69.1 | 3 | 131 | 2.1 | 2.2 | 8.3 | 5 | 4.2 | [^125I]GLP-2(1–33, M10Y) (peptide) |  |  |
|  |  |  |  |  |  |  |  | CC[C@H](C)[C@H](NC(=O)[C@H](Cc1ccccc1)NC(=O)[C@H](CC(=O)O)NC(=O)[C@H](CCCNC(=N)N)NC(=O)[C@H](C)NC(=O)[C@H](C)NC(=O)[C@H](CC(C)C)NC(=O)[C@H](CC(N)=O)NC(=O)[C@H](CC(=O)O)NC(=O)[C@H](CC(C)C)NC(=O)[C@@H](NC(=O)[C@@H](NC(=O)[C@H](CC(N)=O)NC(=O)[C@H](CCSC)NC(=O)[C@H](CCC(=O)O)NC(=O)[C@H](CC(=O)O)NC(=O)[C@H](CO)NC(=O)[C@H](Cc1ccccc1)NC(=O)[C@H](CO)NC(=O)CNC(=O)[C@H](CC(=O)O)NC(=O)[C@H](C)NC(=O)[C@@H](N)Cc1c[nH]cn1)[C@@H](C)O)[C@@H](C)CC)C(=O)N[C@@H](CC(N)=O)C(=O)N[C@@H](Cc1c[nH]c2ccccc12)C(=O)N[C@@H](CC(C)C)C(=O)N[C@H](C(=O)N[C@@H](CCC(N)=O)C(=O)N[C@H](C(=O)N[C@@H](CCCCN)C(=O)N[C@H](C(=O)N[C@H](C(=O)N[C@@H](CC(=O)O)C(=O)O)[C@@H](C)O)[C@@H](C)CC)[C@@H](C)O)[C@@H](C)CC [Human GLP-2 (1–33)] | 118 ± 22.6 | rapidly inactivated by dipeptidyl peptidase 4 in vivo |
